Assay [1] addresses endogenous actin filaments of XTC cells (Xenopus laevis (endogenous in XTC)) (UniProt O93400). The experiment in a line: single-molecule speckle microscopy.
Assay [2] has the same target. The experiment in a line: decay of EGFP fluorescence in permeabilized cells.

Regarding “CPβ1-EGFP expressed in XTC cells (coupled with endogenous CPα subunits) (complex)”, the half-life of speckles in lamellipodia in assay [1] was determined as 1.23 s.

In turn, “EGFP-CPβ1 expressed in XTC cells (coupled with endogenous CPα subunits) (complex)” gave a decay rate of fluorescence in lamellipodia of permeabilized cells in assay [2] of 0.00017 s⁻¹. In assay [1], this substance gave a half-life of persistent speckles after 1 μM Jas of 68.9 s, a half-life of persistent speckles before Jas of 4.26 s, a half-life of persistent speckles in lamella away from stress fibers of 0.95 s and a half-life of persistent speckles on stress fibers of 2.9 s. In addition, the half-life of speckles in lamellipodia in assay [1] turned out to be 1.2 s.

Source of the values: paper PMC2064704.
